Experimental data as given in patent US20150359847A1, “METHOD AND COMPOSITION FOR CONFERRING NEUROPROTECTION” (BLOOD SYSTEMS RESEARCH INSTITUTE, priority 2014, published 2015).

Columns and labels:
SH-SY5Y cells = test: Colorimetric neurite outgrowth assay; type: cell-based, human; settings: 1 μg/ml TIMP3, 48 hrs
Method: Neurite Outgrowth Assay Kit™ 3 μm (Cat# NS220) and AXIS™ Axon Isolation Devices, 150 μm, Plasma Bonded chamber slides (Cat# AX15005PB) were purchased from (EMD Millipore, Billerica, Mass.). For neurite outgrowth assays SH-SY5Y cells were initially differentiated for 24 hrs at a density of 4×10^5 cells per well of a 6-well plate. Cells were then dissociated using kit supplied dissociation buffer and 3×10^5 cells were replated onto transwell inserts. […] Assay was conducted per manufacturer's instructions.

[1] = test system: p-AKT(Ser473) in primary hippocampal neurons; test: Akt (Ser473) phosphorylation in primary hippocampal neurons (antibody array, western blot); type: cell-based, mouse; settings: 1 μg/ml TIMP3, 15 mins
Method: SH-SY5Y cells were obtained from ATCC (Cat# CRL-2266, Manassas, Va.) and were cultured in DMEM and 10% FBS up to passage 10. For differentiation of SH-SY5Y cells into a neuronal phenotype, cells were first plated in DMEEM+10% FBS for 24 hrs before exchanging media in DMEM+1% FBS 10 μM retinoic acid. Differentiation was performed for 3 days before experimentation. Hippocampal neurons were prepared according to the protocol by Beaudoin et al. (Nature Protocols 2012; 7(9):1741-1754) with minor modifications. In brief, after trypsin digestion of hippocampi isolated from P1 mouse pups single cell suspensions was created by trituration and plated onto Biocoat™ poly-D-lysine coated 12-well plates (Cat#354470, BD Biosciences, San Jose, Calif.). […]
Pathscan Antibody™ array kits were purchased from Cell Signaling Technologies (Danvers, Mass.). PathScan® RTK signaling antibody array kit (Fluorescent Readout, Cat#7949) and PathScan™ Akt signaling antibody array kit (Fluorescent Readout, Cat#9700) were performed as per manufacturer's instructions. Imaging was performed on a LI-COR Odyssey™ infrared scanner and pixel densities measured by in house LI-COR Image™ suite software. […]
Lysates was analyzed in conjuncture with the LI-COR Odyssey™ infra-red imaging system. […] After further wash steps images were obtained using a LI-COR™ Odyssey scanner and quantified using LI-COR™ Image Studio software. […]

[2] = test system: phospho-AKT(Ser473) in SH-SY5Y cells; test: Akt (Ser473) phosphorylation in differentiated SH-SY5Y cells (antibody array, western blot, Phosflow); type: cell-based, human
Method: SH-SY5Y cells were obtained from ATCC (Cat# CRL-2266, Manassas, Va.) and were cultured in DMEM and 10% FBS up to passage 10. For differentiation of SH-SY5Y cells into a neuronal phenotype, cells were first plated in DMEEM+10% FBS for 24 hrs before exchanging media in DMEM+1% FBS 10 μM retinoic acid. Differentiation was performed for 3 days before experimentation. Hippocampal neurons were prepared according to the protocol by Beaudoin et al. (Nature Protocols 2012; 7(9):1741-1754) with minor modifications. In brief, after trypsin digestion of hippocampi isolated from P1 mouse pups single cell suspensions was created by trituration and plated onto Biocoat™ poly-D-lysine coated 12-well plates (Cat#354470, BD Biosciences, San Jose, Calif.). 2 pups were used per well and cell suspensions were incubated for 10 minutes per well for a total of 6 wells. The serial incubation allowed for variation in cell densities applicable to different experiments but also contributed to the reduction in non-neuronal cells. Typically wells 1-2 were pooled for western blotting and wells 4-5 were used for imaging following treatments. After the initial plating cells were incubated for 2 hrs before media was completely exchanged for maintenance media that was supplemented with 1 μM of the anti-mitotic cytosine arabinoside in order to further reduce non-neuronal cells. For western blot, cells were cultured for 7 days before experimentation. Half of maintenance media was exchanged on day 2 and day 5. For morphology experiments, treatments were initiated upon the introduction of maintenance media and was renewed 48 hrs later for a further 24 hrs of treatment. Experiments were terminated by fixation for 20 minutes with 4% paraformaldehyde after which cells were stored at 4° C. in PBS prior to staining protocols.
Pathscan Antibody™ array kits were purchased from Cell Signaling Technologies (Danvers, Mass.). PathScan® RTK signaling antibody array kit (Fluorescent Readout, Cat#7949) and PathScan™ Akt signaling antibody array kit (Fluorescent Readout, Cat#9700) were performed as per manufacturer's instructions. Imaging was performed on a LI-COR Odyssey™ infrared scanner and pixel densities measured by in house LI-COR Image™ suite software.
After experimentation, SH-SY5Y cells were detached from culture ware via trypsin digestion and rapidly mixed with an equal volume of BD cytofix fixation buffer (Cat#554655. BD Biosciences, San Jose, Calif.). After wash steps with PBS cells were permeabilized with BD phosflow Perm Buffer III (Cat#558050. BD Biosciences, San Jose, Calif.) and incubated on ice for 30 mins. After washing in BD stain buffer (Cat#554657. BD Biosciences, San Jose, Calif.) cells were counted and 1×10^6 cells were used antibody incubation. Negative IgG compensation control was obtained using ABC control beads (Cat# A10344. Life Technologies, Grand Island, N.Y.). Antibody incubations were conducted for 30 mins at RT in the dark. Following wash steps the volume was adjusted to 500 μl and results obtained using and LSR II flow cytometer and analyzed using Flowjo™ cytometric analytical software version 8.8.7.
Cell lysates for western blotting were prepared with RIPA buffer (Cat#89900. Thermofisher Scientific, Rockford, Ill.) supplemented with phosphatase inhibitor cocktail 2 (Cat# P5726. Sigma, St Louis, Mo.), phosphatase inhibitor cocktail 3 (Cat# P0044. Sigma, St Louis, Mo.) and complete protease inhibitor (Cat#1862209. Thermofisher Scientific, Rockford, Ill.). Complete homogenization was ensured by brief sonication using a Branson Sonifier 150, (Branson Ultrasonics Corporation, Danbury, Conn.). Protein content was quantified with a Pierce BCA protein assay kit per manufacturer's instructions (Cat#23225. Thermofisher Scientific, Rockford, Ill.).
Lysates was analyzed in conjuncture with the LI-COR Odyssey™ infra-red imaging system. […]

B1: TIMP3: Recombinant tissue inhibitor of matrix metalloproteinase-3, a soluble protein released by MSCs, obtained from Amgen Inc. (protein)
chain: CTCSPSHPQDAFCNSDIVIRAKVVGKKLVKEGPFGTLVYTIKQMKMYRGFTKMPHVQYIHTEASESLCGLKLEVNKYQYLLTGRVYDGKMYTGLCNFVERWDQLTLSQRKGLNYRYHLGCNCKIKSCYYLPCFVTSKNECLWTDMLSNFGYPGYQSKHYACIRQKGGYCSWYRGWAPPDKSIINATDP
- neurite outgrowth (colorimetric) (SH-SY5Y cells): promotes increased neurite outgrowth
- p-AKT(Ser473), fluorescent antibody signaling array [1]: activates p-AKT(Ser^473)
- p-AKT(Ser473), western blot [1]: activates p-AKT(Ser^473)
- p-AKT(Ser473), Phosflow cytometry ([2]; 1 μg/ml TIMP3, 15 mins): activates p-AKT(Ser^473)
- p-AKT(Ser473), western blot ([2]; 1 μg/ml TIMP3, 15 mins): activates p-AKT(Ser^473)
- phospho-AKT(Ser473), fluorescent antibody signaling array ([2]; 1 μg/ml TIMP3, 15 mins): activates phospho-AKT(Ser^473)
- p-AKT(Ser473), Phosflow cytometry ([2]; 1 μg/ml TIMP3, 45 minutes): activates p-AKT(Ser^473)
